Experimental data taken from patent US9090897B2, “Production of IFN-lambda by conventional dendritic cells” (Bavarian Nordic A/S, priority 2009, dated 2015).
“Also recorded” adds a separate entry of the source.

Assays:
splenic CD8+ cDC = experiment: In vitro stimulation of sorted splenic CD8+ cDCs, cytokines in supernatant (IFN-λ ELISA, IL-12p70 FlowCytomix); assay type: cell-based, mouse; conditions: for IFN-λ production in combination with poly IC: stimulus added together with poly IC, IL-3 and GM-CSF, 18 h; for effect of cytokine on IFN-λ production / effect of cytokine on IL-12p70 production: combinatory stimulus poly IC+CpG-1668, cytokine 10 ng/ml
From the text: DC subsets were isolated from pooled mouse spleens as described (Vremec et al., 2007). Briefly, spleens were chopped, digested with collagenase (Worthington Biochemical) and DNase (Roche) at room temperature, and treated with EDTA. Low-density cells were enriched by density centrifugation; non-DC lineage cells were coated with mAbs (anti-CD3, KT3-1.1; anti-Thy-1, T24/31.7; anti Gr-1, 1A8; anti-CD19, ID3; anti-erythrocytes, TER119 and anti-NK cells, DX5) and depleted using anti-rat Ig magnetic beads (Qiagen). Dead cells were excluded by propidium iodide staining. cDC populations were sorted based on the expression of CD11c, CD45RA, CD4, CD8a and CD172a and pDCs were purified based on CD11c, CD45RA, and CD172a (all BD Biosciences) expression. Cell sorting was performed on a FACS Aria instrument (BD Biosciences).
Cells were stimulated in vitro with single TLR agonists or combinations thereof containing 10 μg/ml Pam3Cys (InvivoGen), 100 μg/ml poly IC (Axxora), 10 μg/ml LPS (E. coli; Sigma-Aldrich or Axxora), 10 μg/ml R848 (Axxora), 1 μM CpG-1668 or CpG-2216 (TIB-Molbiol), 1 μg/ml profilin of toxoplasma (Axxora). The recombinant cytokines mouse-IL-3, mouse-IL-4, rat-IFN-γ (PeproTech) and mouse-GM-CSF (Tebu-Bio) (10 ng/ml each) were added as indicated. The addition of IL-3 and GM-CSF was based on previous observations that GM-CSF promoted the production of IL-12p70 and that the combination of IL-3 and GM-CSF increased virus induced IFN-λ production in pDCs and cDCs (Hochrein et al., 2000; Hochrein et al., 2004). As source of a parapoxvirus Zylexis, which is used for veterinary purposes was purchased from a pharmacy. HSV-1, in replication deficient form known as disc HSV-1 (HSV-1d) was used as described (Hochrein et al., 2004). IFN-λ in supernatants was analyzed by ELISA and IL-12p70 was determined by FlowCytomix bead assay (Bender Medsystems) according to manufacturer's protocol.

mice [1] = experiment: In vivo challenge (i.v.), serum IFN-λ and IFN-α by ELISA; set-up: species or system mouse; conditions: for IFN-λ production to poly IC after growth factor treatment: FL-KO mice treated 7 days with 10 μg growth factor per day, then 100 μg poly IC i.v., 3-4 h
Description: Mice were injected i.v. into the lateral tail vein with 100 μg poly IC (Axxora) and serum was collected 3-4 h after challenge. Sera were pre-diluted 1/5, […] was analyzed by ELISA as described (Hochrein et al., 2004). IFN-λ was determined by an IFN-λ3 (IL-28B) ELISA (R&D Systems).

CD8α+ cDCs = experiment: In vitro stimulation of FL expanded ex-vivo isolated splenic CD8α+ cDCs, IFN-λ; assay type: cell-based, mouse; conditions: 5×10^5/ml, IL-3+GM-CSF+IL-4+IFN-γ, 100 μg/ml, 18 h
Description: (§1) FIG. 13 depicts that in vivo FL expanded CD8α+cDCs and eCD8α cDCs selectively produce IFN-λ to poly AU in vitro. Highly purified FL expanded ex-vivo isolated splenic 5×10^5/ml were stimulated in the presence of IL-3+GM-CSF+IL-4+IFN-γ with either poly IC (100 μg/ml) or poly AU (100 μg/ml). After 18 h supernatants were analyzed for IFN-λ.
(§2) To see if the IFN-λ production to poly AU seen in vivo would correspond with the same cells as in response to poly IC we enhanced the amount of DC in mice with FL treatment and sorted CD8α+ cDCs, eCD8α cDCs and CD11b+/CD172a+cDCs. Those cells were stimulated with poly IC or poly AU.

mice [2] = experiment: In vivo challenge (i.v.), serum IFN-λ and IFN-α by ELISA; set-up: species or system mouse
eCD8α cDCs = experiment: In vitro stimulation of FL expanded ex-vivo isolated splenic eCD8α cDCs, IFN-λ; assay type: cell-based, mouse; conditions: 5×10^5/ml, IL-3+GM-CSF+IL-4+IFN-γ, 100 μg/ml, 18 h
Description: as §1, §2

CCCCCCCCCCCCCCCC(=O)N[C@@H](CSC[C@@H](COC(=O)CCCCCCCCCCCCCCC)OC(=O)CCCCCCCCCCCCCCC)C(=O)O [Pam3Cys]
IFN-λ production in combination with poly IC (splenic CD8+ cDC): synergistically increased IFN-λ production

CCOCc1nc2c(N)nc3ccccc3c2n1CC(C)(C)O [R848]
IFN-λ production in combination with poly IC (splenic CD8+ cDC): unable to support poly IC induced IFN-λ production

polyadenylic:polyuridylic acid [poly AU]
IFN-λ in the sera (mice [1]; mice, 100 or 500 μg i.v., sera after 3-4 h): induces IFN-λ; also recorded: induced IFN-λ in the sera of mice | IFN-λ production (CD8α+ cDCs): able to produce IFN-λ | systemic IFN-λ (mice [2]; mice, poly AU injection): not detectable | IFN-λ production (eCD8α cDCs): able to produce IFN-λ

B1: FL: Fms-related tyrosine kinase 3 ligand, growth factor involved in development of DCs (protein, UniProt P49771 27-235, looked up)
Fms-related tyrosine kinase 3 …: TQDCSFQHSPISSDFAVKIRELSDYLLQDYPVTVASNLQDEELCGGLWRLVLAQRWMERLKTVAGSKMQGLLERVNTEIHFVTKCAFQPPPSCLRFVQTNISRLLQETSEQLVALKPWITRQNFSRCLELQCQPDSSTLPPPWSPRPLEATAPTAPQPPLLLLLLLPVGLLLLAAAWCLHWQRTRRRTPRPGEQVPPVPSPQDLLLVEH
IFN-λ production to poly IC after growth factor treatment (mice [1]): not only restored, but even increased, their IFN-λ producing capacity above WT level | systemic IFN-λ response to poly IC challenge after growth factor treatment (mice [2]; FL treated WT mice): greatly increased systemic IFN-λ response

B2: M-CSF: M-CSF receptor ligand, growth factor (protein, UniProt P09603 33-554, looked up)
Macrophage colony-stimulating …: EEVSEYCSHMIGSGHLQSLQRLIDSQMETSCQITFEFVDQEQLKDPVCYLKKAFLLVQDIMEDTMRFRDNTPNAIAIVQLQELSLRLKSCFTKDYEEHDKACVRTFYETPLQLLEKVKNVFNETKNLLDKDWNIFSKNCNNSFAECSSQDVVTKPDCNCLYPKAIPSSDPASVSPHQPLAPSMAPVAGLTWEDSEGTEGSSLLPGEQPLHTVDPGSAKQRPPRSTCQSFEPPETPVVKDSTIGGSPQPRPSVGAFNPGMEDILDSAMGTNWVPEEASGEASEIPVPQGTELSPSRPGGGSMQTEPARPSNFLSASSPLPASAKGQQPADVTGTALPRVGPVRPTGQDWNHTPQKTDHPSALLRDPPEPGSPRISSLRPQGLSNPSTLSAQPQLSRSHSSGSVLPLGELEGRRSTRDRRSPAEPEGGPASEGAARPLPRFNSVPLTDTGHERQSEGSFSPQLQESVFHLLVPSVILVLLAVGGLLFYRWRRRSHQEPQRADSPLEQPEGSPLTQDDRQVELPV
IFN-λ production to poly IC after growth factor treatment (mice [1]): able to increase IFN-λ production to poly IC

B3: IFN-γ: recombinant cytokine rat-IFN-γ (protein, UniProt P01581 23-156, looked up)
Interferon gamma: QGTLIESLESLKNYFNSSSMDAMEGKSLLLDIWRNWQKDGNTKILESQIISFYLRLFEVLKDNQAISNNISVIESHLITNFFSNSKAKKDAFMSIAKFEVNNPQIQHKAVNELIRVIHQLSPESSLRKRKRSRC
effect of cytokine on IFN-λ production (splenic CD8+ cDC): enhanced the production of IFN-λ | effect of cytokine on IL-12p70 production (splenic CD8+ cDC): little effects on IL-12p70 production

B4: IL-4: recombinant cytokine mouse-IL-4 (protein, UniProt P07750 21-140, looked up)
Interleukin-4: HIHGCDKNHLREIIGILNEVTGEGTPCTEMDVPNVLTATKNTTESELVCRASKVLRIFYLKHGKTPCLKKNSSVLMELQRLFRAFRCLDSSISCTMNESKSTSLKDFLESLKSIMQMDYS
effect of cytokine on IFN-λ production (splenic CD8+ cDC): not IFN-λ production | effect of cytokine on IL-12p70 production (splenic CD8+ cDC): increased IL-12p70
